Source: patent US9956304B2, “Contrast agents, methods for preparing contrast agents, and methods of imaging” (GEORGIA STATE UNIVERSITY RESEARCH FOUNDATION, INC., priority 2012, dated 2018)
Where “and” joins values, the source holds several entries; their conditions need not be identical. Equal entries are not always repeated.

How the values were obtained:
[1] = mouse, in vivo
[2] = r1 relaxivity at 7 T, inversion recovery; type: physicochemical; conditions: room temperature
Excerpt: With the development of high field MRI scanner, there is a strong need to develop the contrast agents with high relaxivity in high magnetic field strength. However, the relaxivity of macromolecular contrast agents always has dramatic drop at high magnetic field. Caravan and Luther point out the contrast agents with optimized relaxivity in high field should have a rotation correlation time (τR) around 2 ns. We tested our Gd-calcium-binding protein variants in 7 T Varian MRI scanner using inversion recovery sequence. […] Other ProCA3s also have a per Gd r1 relaxivity around 20 mM^−1s^−1 at 7 T and room temperature.

[3] = Heat stability during purification; type: physicochemical
Protocol: These protein solutions were load to FPLC equipped with Hi-trap Q column. After binding to the column, the unbounded component was first washed with 7 column volumes (CV) of buffer A (10 mM HEPES buffer at pH 8.0). Then, buffer B (10 mM HEPES buffer, 1 M NaCl at pH 8.0) concentration was increased to 25% within 7 CV. The column was further washed with 25% of buffer B for 2 CV and then increase to 100% of buffer B of 1 CV to wash out every component bounded to the column. The fractions with ProCA32 elutions were determined by UV abs and SDS-PAGE.

[4] = T1- and T2-weighted MRI of liver and blood vessels; type: in vivo, mice
Protocol: Because the enhanced T1- and T2-weighted images have different effects of imaging contrast (brighter or darker, respectively), there is an enhanced probability of detecting the targeted tumor tissue. In contrast, the currently available approved liver contrast agents such as Eovist® have a very short fast phase (sec.) and liver uptake phase (approximately 3 min) in human. The mouse halftime is much shorter. Due this limitation, with these agents, it is not possible to obtain both high quality imaging for small animal. For human, their applications are also limited by their low relaxivity and short half-life. It is possible to obtain very high quality imaging by applying our contrast agent to both low and high field strengths such as 0.47-9.4 T.
Longer blood circulation of ProCA will benefit the MRI guided intervention therapy […], since such therapy usually performed for a very long time. Long blood circulation time of ProCA32 in blood also promising for the application of DCE-MRI. Arterial input function (AIF) in DCE-MRI experiment is the key experiment for successful calculating tumor permeability. However, it is hard to accurate determine AIF of current clinically available MRI contrast agents, since the blood circulation time of current clinically available MRI contrast agents is too short. […]

[5] = Water coordination number by Tb3+ luminescence lifetime; type: physicochemical; conditions: Tb^3+ luminescence lifetime in H2O and D2O
Protocol: The water coordination number of Tb^3+ in ProCA was measured by Tb^3+ luminescence lifetime experiments. The determined water number for calcium-binding protein WT is 1.3, which is consistent with reported value^31.
Tb^3+ luminescent life time decay in H2O and D2O solvents is measured to characterize the water coordination number of the inner sphere of metal binding sites. WT calcium-binding protein has averaged water number of 1.3, which is consistent with reported value.

[6] = r1 and r2 relaxivity, mini-spec 60 MHz 37 C; type: physicochemical
[7] = mouse, in vivo; remark: listed apart in the source
[8] = In vitro MRI detection limit, T1-weighted spin echo at 7 T; type: physicochemical; conditions: printed partly as 'at least'
Excerpt: Less contrast agents are acquired to acquired good image enhancement when the relaxivity of the contrast agent improved.

[9] = Gd3+ binding affinity by Tb3+-chelator buffer system and Gd3+ competition; conditions: vs wild type protein scaffold
[10] = Serum stability (SDS-PAGE, mass spectrum, immuno-blot); conditions: 50% serum

B1: ProCA32: parvalbumin-scaffold protein MRI contrast agent with two Gd3+ binding sites; calcium-binding protein variant (S56D, F103W) (protein)
chain: MSMTDLLNAEDIKKAVGAFSATDSFDHKKFFQMVGLKKKSADDVKKVFHMLDKDKDGFIEEDELGFILKGFSPDARDLSAKETKMLMAAGDKDGDGKIGVEEWSTLVAES
modifications: Gd3+ bound; ProCA3
Question: What does the source list for B1?
Answer: blood half-life longer than that of Gd-DTPA [1]: more than 100 times; per Gd r1 relaxivity at 7 T [2]: 18 mM⁻¹ s⁻¹; heat stability [3]: very stable at 90 °C; liver in T2-weighted sequence ([4]; 7 min after tail vein injection): the liver became darker; liver in T1-weighted spin echo ([4]; 15 min): the liver showing enhanced an MR signal; water coordination number [5]: 0.4; water coordination number ([5]; listed as PROCA32): 0.44; per Gd r1 [6]: 30 mmol⁻¹ s⁻¹; per particle r1 [6]: 60 mmol⁻¹ s⁻¹; clearance [7]: about 0.13 l/kg; excretion half-life [7]: around 2.8 hours; concentration detectable in vitro by MRI [8]: 2.5 µM and 2 µM; higher Tb^3+ and Gd^3+ binding affinity compared with wild type [9]: 10^11 fold; stable in serum [10]: at least 3 days
